To fix the notation:
B1: WT-BDD-FVIII (wild-type B-domain-deleted factor VIII) (natural protein)
chain 1: ATRRYYLGAVELSWDYMQSDLGELPVDARFPPRVPKSFPFNTSVVYKKTLFVEFTDHLFNIAKPRPPWMGLLGPTIQAEVYDTVVITLKNMASHPVSLHAVGVSYWKASEGAEYDDQTSQREKEDDKVFPGGSHTYVWQVLKENGPMASDPLCLTYSYLSHVDLVKDLNSGLIGALLVCREGSLAKEKTQTLHKFILLFAVFDEGKSWHSETKNSLMQDRDAASARAWPKMHTVNGYVNRSLPGLIGCHRKSVYWHVIGMGTTPEVHSIFLEGHTFLVRNHRQASLEISPITFLTAQTLLMDLGQFLLFCHISSHQHDGMEAYVKVDSCPEEPQLRMKNNEEAEDYDDDLTDSEMDVVRFDDDNSPSFIQIRSVAKKHPKTWVHYIAAEEEDWDYAPLVLAPDDRSYKSQYLNNGPQRIGRKYKKVRFMAYTDETFKTREAIQHESGILGPLLYGEVGDTLLIIFKNQASRPYNIYPHGITDVRPLYSRRLPKGVKHLKDFPILPGEIFKYKWTVTVEDGPTKSDPRCLTRYYSSFVNMERDLASGLIGPLLICYKESVDQRGNQIMSDKRNVILFSVFDENRSWYLTENIQRFLPNPAGVQLEDPEFQASNIMHSINGYVFDSLQLSVCLHEVAYWYILSIGAQTDFLSVFFSGYTFKHKMVYEDTLTLFPFSGETVFMSMENPGLWILGCHNSDFRNRGMTALLKVSSCDKNTGDYYEDSYEDISAYLLSKNNAIEPR
chain 2: EITRTTLQSDQEEIDYDDTISVEMKKEDFDIYDEDENQSPRSFQKKTRHYFIAAVERLWDYGMSSSPHVLRNRAQSGSVPQFKKVVFQEFTDGSFTQPLYRGELNEHLGLLGPYIRAEVEDNIMVTFRNQASRPYSFYSSLISYEEDQRQGAEPRKNFVKPNETKTYFWKVQHHMAPTKDEFDCKAWAYFSDVDLEKDVHSGLIGPLLVCHTNTLNPAHGRQVTVQEFALFFTIFDETKSWYFTENMERNCRAPCNIQMEDPTFKENYRFHAINGYIMDTLPGLVMAQDQRIRWYLLSMGSNENIHSIHFSGHVFTVRKKEEYKMALYNLYPGVFETVEMLPSKAGIWRVECLIGEHLHAGMSTLFLVYSNKCQTPLGMASGHIRDFQITASGQYGQWAPKLARLHYSGSINAWSTKEPFSWIKVDLLAPMIIHGIKTQGARQKFSSLYISQFIIMYSLDGKKWQTYRGNSTGTLMVFFGNVDSSGIKHNIFNPPIIARYIRLHPTHYSIRSTLRMELMGCDLNSCSMPLGMESKAISDAQITASSYFTNMFATWSPSKARLHLQGRSNAWRPQVNNPKEWLQVDFQKTMKVTGVTTQGVKSLLTSMYVKEFLISSSQDGHQWTLFFQNGKVKVFQGNQDSFTPVVNSLDPPLLTRYLRIHPQSWVHQIALRMEVLGCEAQDLY
B2: BDD-FVIII-M2199A (natural protein)
chain 1: ATRRYYLGAVELSWDYMQSDLGELPVDARFPPRVPKSFPFNTSVVYKKTLFVEFTDHLFNIAKPRPPWMGLLGPTIQAEVYDTVVITLKNMASHPVSLHAVGVSYWKASEGAEYDDQTSQREKEDDKVFPGGSHTYVWQVLKENGPMASDPLCLTYSYLSHVDLVKDLNSGLIGALLVCREGSLAKEKTQTLHKFILLFAVFDEGKSWHSETKNSLMQDRDAASARAWPKMHTVNGYVNRSLPGLIGCHRKSVYWHVIGMGTTPEVHSIFLEGHTFLVRNHRQASLEISPITFLTAQTLLMDLGQFLLFCHISSHQHDGMEAYVKVDSCPEEPQLRMKNNEEAEDYDDDLTDSEMDVVRFDDDNSPSFIQIRSVAKKHPKTWVHYIAAEEEDWDYAPLVLAPDDRSYKSQYLNNGPQRIGRKYKKVRFMAYTDETFKTREAIQHESGILGPLLYGEVGDTLLIIFKNQASRPYNIYPHGITDVRPLYSRRLPKGVKHLKDFPILPGEIFKYKWTVTVEDGPTKSDPRCLTRYYSSFVNMERDLASGLIGPLLICYKESVDQRGNQIMSDKRNVILFSVFDENRSWYLTENIQRFLPNPAGVQLEDPEFQASNIMHSINGYVFDSLQLSVCLHEVAYWYILSIGAQTDFLSVFFSGYTFKHKMVYEDTLTLFPFSGETVFMSMENPGLWILGCHNSDFRNRGMTALLKVSSCDKNTGDYYEDSYEDISAYLLSKNNAIEPR
chain 2: EITRTTLQSDQEEIDYDDTISVEMKKEDFDIYDEDENQSPRSFQKKTRHYFIAAVERLWDYGMSSSPHVLRNRAQSGSVPQFKKVVFQEFTDGSFTQPLYRGELNEHLGLLGPYIRAEVEDNIMVTFRNQASRPYSFYSSLISYEEDQRQGAEPRKNFVKPNETKTYFWKVQHHMAPTKDEFDCKAWAYFSDVDLEKDVHSGLIGPLLVCHTNTLNPAHGRQVTVQEFALFFTIFDETKSWYFTENMERNCRAPCNIQMEDPTFKENYRFHAINGYIMDTLPGLVMAQDQRIRWYLLSMGSNENIHSIHFSGHVFTVRKKEEYKMALYNLYPGVFETVEMLPSKAGIWRVECLIGEHLHAGMSTLFLVYSNKCQTPLGMASGHIRDFQITASGQYGQWAPKLARLHYSGSINAWSTKEPFSWIKVDLLAPMIIHGIKTQGARQKFSSLYISQFIIMYSLDGKKWQTYRGNSTGTLMVFFGNVDSSGIKHNIFNPPIIARYIRLHPTHYSIRSTLRMELMGCDLNSCSMPLGMESKAISDAQITASSYFTNAFATWSPSKARLHLQGRSNAWRPQVNNPKEWLQVDFQKTMKVTGVTTQGVKSLLTSMYVKEFLISSSQDGHQWTLFFQNGKVKVFQGNQDSFTPVVNSLDPPLLTRYLRIHPQSWVHQIALRMEVLGCEAQDLY
B3: BDD-FVIII-F2196K (natural protein)
chain 1: ATRRYYLGAVELSWDYMQSDLGELPVDARFPPRVPKSFPFNTSVVYKKTLFVEFTDHLFNIAKPRPPWMGLLGPTIQAEVYDTVVITLKNMASHPVSLHAVGVSYWKASEGAEYDDQTSQREKEDDKVFPGGSHTYVWQVLKENGPMASDPLCLTYSYLSHVDLVKDLNSGLIGALLVCREGSLAKEKTQTLHKFILLFAVFDEGKSWHSETKNSLMQDRDAASARAWPKMHTVNGYVNRSLPGLIGCHRKSVYWHVIGMGTTPEVHSIFLEGHTFLVRNHRQASLEISPITFLTAQTLLMDLGQFLLFCHISSHQHDGMEAYVKVDSCPEEPQLRMKNNEEAEDYDDDLTDSEMDVVRFDDDNSPSFIQIRSVAKKHPKTWVHYIAAEEEDWDYAPLVLAPDDRSYKSQYLNNGPQRIGRKYKKVRFMAYTDETFKTREAIQHESGILGPLLYGEVGDTLLIIFKNQASRPYNIYPHGITDVRPLYSRRLPKGVKHLKDFPILPGEIFKYKWTVTVEDGPTKSDPRCLTRYYSSFVNMERDLASGLIGPLLICYKESVDQRGNQIMSDKRNVILFSVFDENRSWYLTENIQRFLPNPAGVQLEDPEFQASNIMHSINGYVFDSLQLSVCLHEVAYWYILSIGAQTDFLSVFFSGYTFKHKMVYEDTLTLFPFSGETVFMSMENPGLWILGCHNSDFRNRGMTALLKVSSCDKNTGDYYEDSYEDISAYLLSKNNAIEPR
chain 2: EITRTTLQSDQEEIDYDDTISVEMKKEDFDIYDEDENQSPRSFQKKTRHYFIAAVERLWDYGMSSSPHVLRNRAQSGSVPQFKKVVFQEFTDGSFTQPLYRGELNEHLGLLGPYIRAEVEDNIMVTFRNQASRPYSFYSSLISYEEDQRQGAEPRKNFVKPNETKTYFWKVQHHMAPTKDEFDCKAWAYFSDVDLEKDVHSGLIGPLLVCHTNTLNPAHGRQVTVQEFALFFTIFDETKSWYFTENMERNCRAPCNIQMEDPTFKENYRFHAINGYIMDTLPGLVMAQDQRIRWYLLSMGSNENIHSIHFSGHVFTVRKKEEYKMALYNLYPGVFETVEMLPSKAGIWRVECLIGEHLHAGMSTLFLVYSNKCQTPLGMASGHIRDFQITASGQYGQWAPKLARLHYSGSINAWSTKEPFSWIKVDLLAPMIIHGIKTQGARQKFSSLYISQFIIMYSLDGKKWQTYRGNSTGTLMVFFGNVDSSGIKHNIFNPPIIARYIRLHPTHYSIRSTLRMELMGCDLNSCSMPLGMESKAISDAQITASSYKTNMFATWSPSKARLHLQGRSNAWRPQVNNPKEWLQVDFQKTMKVTGVTTQGVKSLLTSMYVKEFLISSSQDGHQWTLFFQNGKVKVFQGNQDSFTPVVNSLDPPLLTRYLRIHPQSWVHQIALRMEVLGCEAQDLY

For the experiment, the target named is T1, von Willebrand factor (VWF) (UniProt P04275 764-2813).
T1 construct: von Willebrand factor; Immobilised by amine coupling
The experiment is described as follows: SPR; VWF attached to a CM4 chip by amine coupling at low density (200 RUs); BDD-FVIII proteins injected in a 3-fold concentration series from 0.22-18 nM, single-cycle kinetics; fit to a 1:1 model; Biacore T200. Particulars: both partners purified. (In general: SPR reads the build-up and loss of mass on a sensor chip optically.)
With B1, the dissociation constant Kd (as a rule, the concentration at which binding is half-saturated) is 0.29 nM; the koff (usually the rate constant with which the complex falls apart) turned out to be 0.00069 s⁻¹; the on-rate constant (kon) (in general, the second-order rate constant of association) stood at 2.4e+06 M⁻¹ s⁻¹.

As to B2, the dissociation constant (Kd) was 0.25 nM, the koff was 0.00067 s⁻¹ and the association rate constant (kon) is 2.7e+06 M⁻¹ s⁻¹.

B3: binding was characterised by a dissociation constant (Kd) of 0.2 nM, the dissociation rate constant (koff) was determined as 0.00054 s⁻¹ and the on-rate constant (kon) came out at 2.9e+06 M⁻¹ s⁻¹.

The record behind these values is publication PMC4304825, “Six Amino Acid Residues in a 1200 Å2 Interface Mediate Binding of Factor VIII to an IgG4κ Inhibitory Antibody” (PLoS ONE, 2015).
